± gives the standard deviation of the averaged measurements.
Assay: total protein half-life in vivo (active degradation + dilution); higher = more stable protein
[1] = E. coli NCM3722 delta-clpP delta-lon delta-hslV, growth: N-lim chemostat, doubling time 6 h
[2] = E. coli NCM3722 delta-clpP, growth: N-lim chemostat, doubling time 6 h
[3] = E. coli NCM3722 delta-hslV, growth: N-lim chemostat, doubling time 6 h
[4] = E. coli NCM3722 delta-lon, growth: N-lim chemostat, doubling time 6 h
[5] = E. coli NCM3722 delta-smpB, growth: N-lim chemostat, doubling time 6 h
[6] = wild type E. coli NCM3722, growth: C-lim chemostat, doubling time 3 h
[7] = wild type E. coli NCM3722, growth: C-lim chemostat, doubling time 6 h
[8] = wild type E. coli NCM3722, growth: C-lim chemostat, doubling time 12 h
[9] = wild type E. coli NCM3722, growth: N-lim chemostat, doubling time 6 h
[10] = wild type E. coli NCM3722, growth: P-lim chemostat, doubling time 6 h
[11] = wild type E. coli NCM3722, growth: P-lim chemostat, doubling time 12 h
[12] = wild type E. coli NCM3722, growth: N-lim chemostat, doubling time 12 h

Sequence | total protein half-life in vivo [1] [h] | total protein half-life in vivo [2] [h] | total protein half-life in vivo [3] [h] | total protein half-life in vivo [4] [h] | total protein half-life in vivo [5] [h] | total protein half-life in vivo [6] [h] | total protein half-life in vivo [7] [h] | total protein half-life in vivo [8] [h] | total protein half-life in vivo [9] [h] | total protein half-life in vivo [10] [h] | total protein half-life in vivo [11] [h] | total protein half-life in vivo [12] [h]
MSAGSPKFTVRRIAALSLVSLWLAGCSDTSNPPAPVSSVNGNAPANTNSGMLITPPPKMGTTSTAQQPQIQPVQQPQIQATQQPQIQPVQPVAQQPVQMENGRIVYNRQYGNIPKGSYSGSTYTVKKGDTLFYIAWITGNDFRDLAQRNNIQAPYALNVGQTLQVGNASGTPITGGNAITQADAAEQGVVIKPAQNSTVAVASQPTITYSESSGEQSANKMLPNNKPTATTVTAPVTVPTASTTEPTVSSTSTSTPISTWRWPTEGKVIETFGASEGGNKGIDIAGSKGQAIIATADGRVVYAGNALRGYGNLIIIKHNDDYLSAYAHNDTMLVREQQEVKAGQKIATMGSTGTSSTRLHFEIRYKGKSVNPLRYLPQR [P0ADA3] | 5.97 ± 0.43 | 6.2 ± 0.18 | 6.44 ± 0.29 | 7.02 ± 0.32 | 6.32 ± 0.11 | 2.926 ± 0.019 | 5.92 ± 0.28 | 12.8 ± 3.5 | 6.01 ± 0.067 | 5.81 ± 0.16 | 12 ± 0.81 | 
MSAQINNIRPEFDREIVDIVDYVMNYEISSKVAYDTAHYCLLDTLGCGLEALEYPACKKLLGPIVPGTVVPNGVRVPGTQFQLDPVQAAFNIGAMIRWLDFNDTWLAAEWGHPSDNLGGILATADWLSRNAVASGKAPLTMKQVLTAMIKAHEIQGCIALENSFNRVGLDHVLLVKVASTAVVAEMLGLTREEILNAVSLAWVDGQSLRTYRHAPNTGTRKSWAAGDATSRAVRLALMAKTGEMGYPSALTAPVWGFYDVSFKGESFRFQRPYGSYVMENVLFKISFPAEFHSQTAVEAAMTLYEQMQAAGKTAADIEKVTIRTHEACIRIIDKKGPLNNPADRDHCIQYMVAIPLLFGRLTAADYEDNVAQDKRIDALREKINCFEDPAFTADYHDPEKRAIANAITLEFTDGTRFEEVVVEYPIGHARRRQDGIPKLVDKFKINLARQFPTRQQQRILEVSLDRARLEQMPVNEYLDLYVI |  |  |  |  |  | 3.04 ± 0.28 | 4.21 ± 0.07 | 8.53 ± 1 | 5.98 |  |  | 
MSAQKPGLHPRNRHHSRYDLATLCQVNPELRQFLTLTPAGEQSVDFANPLAVKALNKALLAHFYAVANWDIPDGFLCPPVPGRADYIHHLADLLAEASGTIPANASILDIGVGANCIYPLIGVHEYGWRFTGSETSSQALSSAQAIISSNPGLNRAIRLRRQKESGAIFNGIIHKNEQYDATLCNPPFHDSAAAARAGSERKRRNLGLNKDDALNFGGQQQELWCEGGEVTFIKKMIEESKGFAKQVMWFTSLVSRGENLPPLYRALTDVGAVKVVKKEMAQGQKQSRFIAWTFMNDEQRRRFVNRQR | 5.5 ± 0.76 | 4.08 ± 0.18 | 5.27 ± 1.1 | 5.31 ± 0.52 | 4.11 ± 0.72 | 2.98 ± 0.11 | 4.83 ± 0.83 | 13.2 | 4.81 ± 0.35 | 5.28 ± 0.23 | 10.5 ± 0.17 | 7.46 ± 0.98
MSAQVSLELHHRISQFLFHEASLLDDWKFRDWLAQLDEEIRYTMRTTVNAQTRDRRKGVQPPTTWIFNDTKDQLERRIARLETGMAWAEEPPSRTRHLISNCQISETDIPNVFAVRVNYLLYRAQKERDETFYVGTRFDKVRRLEDDNWRLLERDIVLDQAVITSHNLSVLF | > 8 |  |  |  |  | 2.05 | 5.02 | 8.73 |  | 5.1 ± 0.36 | 9.68 ± 0.98 | 
MSCEELEIVWNNIKAEARTLADCEPMLASFYHATLLKHENLGSALSYMLANKLSSPIMPAIAIREVVEEAYAADPEMIASAACDIQAVRTRDPAVDKYSTPLLYLKGFHALQAYRIGHWLWNQGRRALAIFLQNQVSVTFQVDIHPAAKIGRGIMLDHATGIVVGETAVIENDVSILQSVTLGGTGKSGGDRHPKIREGVMIGAGAKILGNIEVGRGAKIGAGSVVLQPVPPHTTAAGVPARIVGKPDSDKPSMDMDQHFNGINHTFEYGDGI [P0A9D4] | 5.17 ± 0.28 | 4.83 ± 0.052 | 4.32 ± 0.11 | 4.85 ± 0.097 | 4.76 ± 0.16 | 3.65 ± 0.071 | 5.49 ± 0.22 | 9.82 ± 0.61 | 5.03 ± 0.5 | 5.83 ± 0.13 | 11.5 ± 0.77 | 7.88 ± 0.39
MSDDNSHSSDTISNKKGFFSLLLSQLFHGEPKNRDELLALIRDSGQNDLIDEDTRDMLEGVMDIADQRVRDIMIPRSQMITLKRNQTLDECLDVIIESAHSRFPVISEDKDHIEGILMAKDLLPFMRSDAEAFSMDKVLRQAVVVPESKRVDRMLKEFRSQRYHMAIVIDEFGGVSGLVTIEDILELIVGEIEDEYDEEDDIDFRQLSRHTWTVRALASIEDFNEAFGTHFSDEEVDTIGGLVMQAFGHLPARGETIDIDGYQFKVAMADSRRIIQVHVKIPDDSPQPKLDE [P0AE78] | 5.6 ± 0.81 | 4.83 ± 0.09 | 5.25 ± 0.99 | 5.54 ± 0.81 | 4.73 ± 0.13 | 2.91 ± 0.18 | 5.83 ± 0.67 | 10 ± 0.62 | 4.6 ± 0.091 | 5.28 ± 0.17 | 9.77 ± 1.1 | 8.26 ± 0.13
MSDERYQQRQQRVKEKVDARVAQAQDERGIIIVFTGNGKGKTTAAFGTATRAVGHGKKVGVVQFIKGTWPNGERNLLEPHGVEFQVMATGFTWDTQNRESDTAACREVWQHAKRMLADSSLDMVLLDELTYMVAYDYLPLEEVVQALNERPHQQTVIITGRGCHRDILELADTVSELRPVKHAFDAGVKAQIGIDY [P0A9H5] | 4.8 ± 0.41 | 4.52 ± 0.17 | 4.27 ± 0.56 | 5.29 ± 1.2 | 4.17 ± 0.17 | 3.41 ± 0.32 | 5.05 ± 0.13 | 9.56 ± 0.6 | 4.235 ± 0.024 | 5.852 ± 0.021 | 11 ± 0.43 | 6.63 ± 0.33
MSDIALTVSILALVAVVGLFIGNVKFRGIGLGIGGVLFGGIIVGHFVSQAGMTLSSDMLHVIQEFGLILFVYTIGIQVGPGFFASLRVSGLRLNLFAVLIVIIGGLVTAILHKLFDIPLPVVLGIFSGAVTNTPALGAGQQILRDLGTPMEMVDQMGMSYAMAYPFGICGILFTMWMLRVIFRVNVETEAQQHESSRTNGGALIKTINIRVENPNLHDLAIKDVPILNGDKIICSRLKREETLKVPSPDTIIQLGDLLHLVGQPADLHNAQLVIGQEVDTSLSTKGTDLRVERVVVTNENVLGKRIRDLHFKERYDVVISRLNRAGVELVASGDISLQFGDILNLVGRPSAIDAVANVLGNAQQKLQQVQMLPVFIGIGLGVLLGSIPVFVPGFPAALKLGLAGGPLIMALILGRIGSIGKLYWFMPPSANLALRELGIVLFLSVVGLKSGGDFVNTLVNGEGLSWIGYGALITAVPLITVGILARMLAKMNYLTMCGMLAGSMTDPPALAFANNLHPTSGAAALSYATVYPLVMFLRIITPQLLAVLFWSIG |  | 5.7 ± 0.54 | 6.35 | 5.52 ± 0.89 | 6.03 ± 0.39 | 3.27 ± 0.38 | 5.33 ± 1.1 | 11.4 ± 1.6 | 5.98 ± 0.39 | 5.7 ± 0.059 | 9.94 ± 1.5 | 10.4 ± 0.3
MSDMAERLALHEFTENAYLNYSMYVIMDRALPFIGDGLKPVQRRIVYAMSELGLNASAKFKKSARTVGDVLGKYHPHGDSACYEAMVLMAQPFSYRYPLVDGQGNWGAPDDPKSFAAMRYTESRLSKYSELLLSELGQGTADWVPNFDGTLQEPKMLPARLPNILLNGTTGIAVGMATDIPPHNLREVAQAAIALIDQPKTTLDQLLDIVQGPDYPTEAEIITSRAEIRKIYENGRGSVRMRAVWKKEDGAVVISALPHQVSGARVLEQIAAQMRNKKLPMVDDLRDESDHENPTRLVIVPRSNRVDMDQVMNHLFATTDLEKSYRINLNMIGLDGRPAVKNLLEILSEWLVFRRDTVRRRLNYRLEKVLKRLHILEGLLVAFLNIDEVIEIIRNEDEPKPALMSRFGLTETQAEAILELKLRHLAKLEEMKIRGEQSELEKERDQLQGILASERKMNNLLKKELQADAQAYGDDRRSPLQEREEAKAMSEHDMLPSEPVTIVLSQMGWVRSAKGHDIDAPGLNYKAGDSFKAAVKGKSNQPVVFVDSTGRSYAIDPITLPSARGQGEPLTGKLTLPPGATVDHMLMESDDQKLLMASDAGYGFVCTFNDLVARNRAGKALITLPENAHVMPPVVIEDASDMLLAITQAGRMLMFPVSDLPQLSKGKGNKIINIPSAEAARGEDGLAQLYVLPPQSTLTIHVGKRKIKLRPEELQKVTGERGRRGTLMRGLQRIDRVEIDSPRRASSGDSEE [P0AFI2] | 5.85 ± 0.14 | 6.82 ± 1.4 | 3.67 ± 0.47 | 3.93 ± 0.34 | 3.2 ± 0.17 | 2.44 ± 0.17 | 3.745 ± 0.031 | 5.99 ± 0.32 | 3.42 ± 0.22 | 2.947 ± 0.025 | 5.43 ± 0.56 | 5.17 ± 0.29
MSDMHSLLIAAILGVVEGLTEFLPVSSTGHMIIVGHLLGFEGDTAKTFEVVIQLGSILAVVVMFWRRLFGLIGIHFGRPLQHEGESKGRLTLIHILLGMIPAVVLGLLFHDTIKSLFNPINVMYALVVGGLLLIAAECLKPKEPRAPGLDDMTYRQAFMIGCFQCLALWPGFSRSGATISGGMLMGVSRYAASEFSFLLAVPMMMGATALDLYKSWGFLTSGDIPMFAVGFITAFVVALIAIKTFLQLIKRISFIPFAIYRFIVAAAVYVVFF |  | > 8 |  | 6.08 | 5.89 | > 4 |  | 11.9 |  | 6.83 ± 0.96 |  | 
MSDNIRVGLIGYGYASKTFHAPLIAGTPGQELAVISSSDETKVKADWPTVTVVSEPKHLFNDPNIDLIVIPTPNDTHFPLAKAALEAGKHVVVDKPFTVTLSQARELDALAKSLGRVLSVFHNRRWDSDFLTLKGLLAEGVLGEVAYFESHFDRFRPQVRDRWREQGGPGSGIWYDLAPHLLDQAITLFGLPVSMTVDLAQLRPGAQSTDYFHAILSYPQRRVILHGTMLAAAESARYIVHGSRGSYVKYGLDPQEERLKNGERLPQEDWGYDMRDGVLTRVEGEERVEETLLTVPGNYPAYYAAIRDALNGDGENPVPASQAIQVMELIELGIESAKHRATLCLA | 5.37 ± 0.71 | 4.69 ± 0.12 | 4.729 ± 0.033 | 5.58 ± 0.43 | 4.176 ± 0.0077 | 3.26 ± 0.26 | 5.54 ± 0.26 | 9.43 ± 2.6 | 5.05 ± 0.36 | 5.48 ± 0.27 | 13.8 ± 0.79 | 10.5 ± 0.45
MSDQLQMTDGMHIIVEALKQNNIDTIYGVVGIPVTDMARHAQAEGIRYIGFRHEQSAGYAAAASGFLTQKPGICLTVSAPGFLNGLTALANATVNGFPMIMISGSSDRAIVDLQQGDYEELDQMNAAKPYAKAAFRVNQPQDLGIALARAIRVSVSGRPGGVYLDLPANVLAATMEKDEALTTIVKVENPSPALLPCPKSVTSAISLLAKAERPLIILGKGAAYSQADEQLREFIESAQIPFLPMSMAKGILEDTHPLSAAAARSFALANADVVMLVGARLNWLLAHGKKGWAADTQFIQLDIEPQEIDSNRPIAVPVVGDIASSMQGMLAELKQNTFTTPLVWRDILNIHKQQNAQKMHEKLSTDTQPLNYFNALSAVRDVLRENQDIYLVNEGANTLDNARNIIDMYKPRRRLDCGTWGVMGIGMGYAIGASVTSGSPVVAIEGDSAFGFSGMEIETICRYNLPVTIVIFNNGGIYRGDGVDLSGAGAPSPTDLLHHARYDKLMDAFRGVGYNVTTTDELRHALTTGIQSRKPTIINVVIDPAAGTESGHITKLNPKQVAGN [P0AFI0] | 5.61 ± 0.33 |  |  |  | 3.08 | > 4 | 3.11 |  |  | 4.43 | 9.26 ± 0.98 | 
